B1: Enhancer of mRNA-decapping protein 3 (Homo sapiens), Q96F86 (parent)
chain: MATDWLGSIVSINCGDSLGVYQGRVSAVDQVSQTISLTRPFHNGVKCLVPEVTFRAGDITELKILEIPGPGDNQHFGDLHQTELGPSGAGCQVGINQNGTGKFVKKPASSSSAPQNIPKRTDVKSQDVAVSPQQQQCSKSYVDRHMESLSQSKSFRRRHNSWSSSSRHPNQATPKKSGLKNGQMKNKDDECFGDDIEEIPDTDFDFEGNLALFDKAAVFEEIDTYERRSGTRSRGIPNERPTRYRHDENILESEPIVYRRIIVPHNVSKEFCTDSGLVVPSISYELHKKLLSVAEKHGLTLERRLEMTGVCASQMALTLLGGPNRLNPKNVHQRPTVALLCGPHVKGAQGISCGRHLANHDVQVILFLPNFVKMLESITNELSLFSKTQGQQVSSLKDLPTSPVDLVINCLDCPENVFLRDQPWYKAAVAWANQNRAPVLSIDPPVHEVEQGIDAKWSLALGLPLPLGEHAGRIYLCDIGIPQQVFQEVGINYHSPFGCKFVIPLHSA
B2: Protein VAC14 homolog (Homo sapiens), Q08AM6 (parent)
chain: MNPEKDFAPLTPNIVRALNDKLYEKRKVAALEIEKLVREFVAQNNTVQIKHVIQTLSQEFALSQHPHSRKGGLIGLAACSIALGKDSGLYLKELIEPVLTCFNDADSRLRYYACEALYNIVKVARGAVLPHFNVLFDGLSKLAADPDPNVKSGSELLDRLLKDIVTESNKFDLVSFIPLLRERIYSNNQYARQFIISWILVLESVPDINLLDYLPEILDGLFQILGDNGKEIRKMCEVVLGEFLKEIKKNPSSVKFAEMANILVIHCQTTDDLIQLTAMCWMREFIQLAGRVMLPYSSGILTAVLPCLAYDDRKKSIKEVANVCNQSLMKLVTPEDDELDELRPGQRQAEPTPDDALPKQEGTASGGPDGSCDSSFSSGISVFTAASTERAPVTLHLDGIVQVLNCHLSDTAIGMMTRIAVLKWLYHLYIKTPRKMFRHTDSLFPILLQTLSDESDEVILKDLEVLAEIASSPAGQTDDPGPLDGPDLQASHSELQVPTPGRAGLLNTSGTKGLECSPSTPTMNSYFYKFMINLLKRFSSERKLLEVRGPFIIRQLCLLLNAENIFHSMADILLREEDLKFASTMVHALNTILLTSTELFQLRNQLKDLKTLESQNLFCCLYRSWCHNPVTTVSLCFLTQNYRHAYDLIQKFGDLEVTVDFLAEVDKLVQLIECPIFTYLRLQLLDVKNNPYLIKALYGLLMLLPQSSAFQLLSHRLQCVPNPELLQTEDSLKAAPKSQKADSPSIDYAELLQHFEKVQNKHLEVRHQRSGRGDHLDRRVVL
partner: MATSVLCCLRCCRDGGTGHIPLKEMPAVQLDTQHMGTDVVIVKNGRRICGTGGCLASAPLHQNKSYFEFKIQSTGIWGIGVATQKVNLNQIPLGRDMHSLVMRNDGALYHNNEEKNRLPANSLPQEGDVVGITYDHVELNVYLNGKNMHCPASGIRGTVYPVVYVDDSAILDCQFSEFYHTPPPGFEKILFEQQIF
B3: Genetic suppressor element 1 (Homo sapiens), Q14687 (parent)
chain: MKGMSHEPKSPSLGMLSTATRTTATVNPLTPSPLNGALVPSGSPATSSALSAQAAPSSSFAAALRKLAKQAEEPRGSSLSSESSPVSSPATNHSSPASTPKRVPMGPIIVPPGGHSVPSTPPVVTIAPTKTVNGVWRSESRQDAGSRSSSGGRERLIVEPPLPQEKAGGPAIPSHLLSTPYPFGLSPSSVVQDSRFPPLNLQRPVHHVVPPSTVTEDYLRSFRPYHTTDDLRMSSLPPLGLDPATAAAYYHPSYLAPHPFPHPAFRMDDSYCLSALRSPFYPIPTPGSLPPLHPSAMHLHLSGVRYPPELSHSSLAALHSERMSGLSAERLQMDEELRREREREREREREREADREREKEREREREKEREQEKEREREKERERELERQREQRAREKELLAAKALEPSFLPVAELHGLRGHATEERGKPSEQLTPTRAEKLKDAGLQAPKPVQHPLHPVPTPHHTVPSLISNHGIFSLPSSSAATALLIQRTNEEEKWLARQRRLRQEKEDRQSQVSEFRQQVLEQHLDMGRPPVPAEAEHRPESTTRPGPNRHEPGGRDPPQHFGGPPPLISPKPQLHAAPTALWNPVSLMDNTLETRRAESHSLHSHPAAFEPSRQAAVPLVKVERVFCPEKAEEGPRKREPAPLDKYQPPPPPPREGGSLEHQPFLPGPGPFLAELEKSTQTILGQQRASLPQAATFGELSGPLKPGSPYRPPVPRAPDPAYIYDEFLQQRRRLVSKLDLEERRRREAQEKGYYYDLDDSYDESDEEEVRAHLRCVAEQPPLKLDTSSEKLEFLQLFGLTTQQQKEELVAQKRRKRRRMLRERSPSPPTIQSKRQTPSPRLALSTRYSPDEMNNSPNFEEKKKFLTIFNLTHISAEKRKDKERLVEMLRAMKQKALSAAVADSLTNSPRDSPAVSLSEPATQQASLDVEKPVGVAASLSDIPKAAEPGKLEQVRPQELSRVQELAPASGEKARLSEAPGGKKSLSMLHYIRGAAPKDIPVPLSHSTNGKSKPWEPFVAEEFAHQFHESVLQSTQKALQKHKGSVAVLSAEQNHKVDTSVHYNIPELQSSSRAPPPQHNGQQEPPTARKGPPTQELDRDSEEEEEEDDEDGEDEEEVPKRKWQGIEAVFEAYQEHIEEQNLERQVLQTQCRRLEARHYSLSLTAEQLSHSVAELRSQKQKMVSERERLQAELDHLRKCLALPAMHWPRGYLKGYPR
partner: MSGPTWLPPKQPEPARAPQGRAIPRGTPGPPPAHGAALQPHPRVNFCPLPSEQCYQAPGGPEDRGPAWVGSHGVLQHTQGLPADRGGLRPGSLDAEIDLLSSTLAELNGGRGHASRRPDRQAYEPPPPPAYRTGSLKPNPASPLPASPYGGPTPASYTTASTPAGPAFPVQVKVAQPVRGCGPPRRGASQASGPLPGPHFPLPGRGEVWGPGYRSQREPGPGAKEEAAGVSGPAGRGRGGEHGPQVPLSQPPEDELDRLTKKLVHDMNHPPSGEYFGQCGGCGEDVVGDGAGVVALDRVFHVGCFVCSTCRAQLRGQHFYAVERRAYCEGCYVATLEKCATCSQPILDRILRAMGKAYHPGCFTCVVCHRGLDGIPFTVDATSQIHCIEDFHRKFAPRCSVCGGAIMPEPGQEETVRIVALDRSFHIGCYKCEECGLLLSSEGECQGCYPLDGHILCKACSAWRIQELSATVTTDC
B4: E3 ubiquitin-protein ligase RNF31 (Homo sapiens), Q96EP0 (parent)
chain: MPGEEEERAFLVAREELASALRRDSGQAFSLEQLRPLLASSLPLAARYLQLDAARLVRCNAHGEPRNYLNTLSTALNILEKYGRNLLSPQRPRYWRGVKFNNPVFRSTVDAVQGGRDVLRLYGYTEEQPDGLSFPEGQEEPDEHQVATVTLEVLLLRTELSLLLQNTHPRQQALEQLLEDKVEDDMLQLSEFDPLLREIAPGPLTTPSVPGSTPGPCFLCGSAPGTLHCPSCKQALCPACDHLFHGHPSRAHHLRQTLPGVLQGTHLSPSLPASAQPRPQSTSLLALGDSSLSSPNPASAHLPWHCAACAMLNEPWAVLCVACDRPRGCKGLGLGTEGPQGTGGLEPDLARGRWACQSCTFENEAAAVLCSICERPRLAQPPSLVVDSRDAGICLQPLQQGDALLASAQSQVWYCIHCTFCNSSPGWVCVMCNRTSSPIPAQHAPRPYASSLEKGPPKPGPPRRLSAPLPSSCGDPEKQRQDKMREEGLQLVSMIREGEAAGACPEEIFSALQYSGTEVPLQWLRSELPYVLEMVAELAGQQDPGLGAFSCQEARRAWLDRHGNLDEAVEECVRTRRRKVQELQSLGFGPEEGSLQALFQHGGDVSRALTELQRQRLEPFRQRLWDSGPEPTPSWDGPDKQSLVRRLLAVYALPSWGRAELALSLLQETPRNYELGDVVEAVRHSQDRAFLRRLLAQECAVCGWALPHNRMQALTSCECTICPDCFRQHFTIALKEKHITDMVCPACGRPDLTDDTQLLSYFSTLDIQLRESLEPDAYALFHKKLTEGVLMRDPKFLWCAQCSFGFIYEREQLEATCPQCHQTFCVRCKRQWEEQHRGRSCEDFQNWKRMNDPEYQAQGLAMYLQENGIDCPKCKFSYALARGGCMHFHCTQCRHQFCSGCYNAFYAKNKCPEPNCRVKKSLHGHHPRDCLFYLRDWTALRLQKLLQDNNVMFNTEPPAGARAVPGGGCRVIEQKEVPNGLRDEACGKETPAGYAGLCQAHYKEYLVSLINAHSLDPATLYEVEELETATERYLHVRPQPLAGEDPPAYQARLLQKLTEEVPLGQSIPRRRK
B5: Enhancer of mRNA-decapping protein 3 (Homo sapiens), Q96F86 (parent)
chain: B1 chain
partner: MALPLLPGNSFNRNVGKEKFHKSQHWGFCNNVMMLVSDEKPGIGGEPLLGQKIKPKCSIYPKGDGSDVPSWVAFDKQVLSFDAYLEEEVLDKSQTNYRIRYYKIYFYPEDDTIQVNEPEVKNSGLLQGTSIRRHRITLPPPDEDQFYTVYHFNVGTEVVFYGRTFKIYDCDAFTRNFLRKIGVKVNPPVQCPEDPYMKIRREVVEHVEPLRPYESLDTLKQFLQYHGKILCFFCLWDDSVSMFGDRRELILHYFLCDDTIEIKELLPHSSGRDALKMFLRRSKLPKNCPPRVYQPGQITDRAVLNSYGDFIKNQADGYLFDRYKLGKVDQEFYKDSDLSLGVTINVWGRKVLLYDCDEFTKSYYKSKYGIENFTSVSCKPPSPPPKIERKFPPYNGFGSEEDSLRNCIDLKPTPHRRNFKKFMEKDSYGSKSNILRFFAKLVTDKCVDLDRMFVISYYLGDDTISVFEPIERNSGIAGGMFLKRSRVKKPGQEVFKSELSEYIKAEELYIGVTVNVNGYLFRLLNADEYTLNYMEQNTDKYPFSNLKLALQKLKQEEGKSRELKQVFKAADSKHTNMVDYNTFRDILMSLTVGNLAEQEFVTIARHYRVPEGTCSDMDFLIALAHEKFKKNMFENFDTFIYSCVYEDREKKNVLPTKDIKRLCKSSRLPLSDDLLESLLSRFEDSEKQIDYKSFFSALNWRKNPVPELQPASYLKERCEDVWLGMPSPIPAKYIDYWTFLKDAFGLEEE

Variants of: B1
Conditions: with ddx6_human DDX6, P26196
Sequence of ddx6_human DDX6, P26196 (P26196 whole entry): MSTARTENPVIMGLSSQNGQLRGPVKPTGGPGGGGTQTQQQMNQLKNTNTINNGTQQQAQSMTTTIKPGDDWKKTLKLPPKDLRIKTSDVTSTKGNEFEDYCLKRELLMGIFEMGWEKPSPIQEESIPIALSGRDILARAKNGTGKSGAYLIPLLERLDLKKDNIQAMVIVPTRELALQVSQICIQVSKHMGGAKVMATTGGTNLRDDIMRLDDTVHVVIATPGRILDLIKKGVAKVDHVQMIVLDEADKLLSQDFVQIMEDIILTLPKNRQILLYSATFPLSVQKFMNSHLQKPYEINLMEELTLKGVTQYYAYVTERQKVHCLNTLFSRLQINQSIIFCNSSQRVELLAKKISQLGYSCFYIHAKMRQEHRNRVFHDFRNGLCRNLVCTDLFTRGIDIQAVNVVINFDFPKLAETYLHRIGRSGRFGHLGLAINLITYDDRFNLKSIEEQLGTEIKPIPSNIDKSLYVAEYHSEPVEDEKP
With MATDWLGSIVSINCGDSLGVYQGRVSAVDQVSQTISLTRPFHNGVKCLVPEVTFRAGDITELKILEIPGPGDNQHFGDLHQTELGPSGAGCQVGINQNGTGKFVKKPASSSSAPQNIPKRTDVKSQDVAVSPQQQQCSKSYVDRHMESLSQSKSFRRRHNSWSSSSRHPNQATPKKSGLKNGQMKNKDDECFGDDIEEIPDTDFDFEGNLALLDKAAVFEEIDTYERRSGTRSRGIPNERPTRYRHDENILESEPIVYRRIIVPHNVSKEFCTDSGLVVPSISYELHKKLLSVAEKHGLTLERRLEMTGVCASQMALTLLGGPNRLNPKNVHQRPTVALLCGPHVKGAQGISCGRHLANHDVQVILFLPNFVKMLESITNELSLFSKTQGQQVSSLKDLPTSPVDLVINCLDCPENVFLRDQPWYKAAVAWANQNRAPVLSIDPPVHEVEQGIDAKWSLALGLPLPLGEHAGRIYLCDIGIPQQVFQEVGINYHSPFGCKFVIPLHSA [F213L] the “effect of a mutation on the interaction” value was “disrupting interaction strength”.

Variants of: B2
Conditions: with spry7_human SPRYD7, Q5W111
In the case of A127S, the “effect of a mutation on the interaction” value is reported as “with no effect”.

Variants of: B3
Conditions: with trip6_human TRIP6, Q15654
In the case of R503Q, the “effect of a mutation on the interaction” value is reported as “with no effect”.

Variants of: B3
Conditions: with trip6_human TRIP6, Q15654
Remark: another data set of the same source
E368K was tested, and the “effect of a mutation on the interaction” value was “with no effect”.

Variants of: B4
Conditions: with hoil1_human RBCK1, Q9BYM8
Sequence of hoil1_human RBCK1, Q9BYM8 (Q9BYM8 whole entry): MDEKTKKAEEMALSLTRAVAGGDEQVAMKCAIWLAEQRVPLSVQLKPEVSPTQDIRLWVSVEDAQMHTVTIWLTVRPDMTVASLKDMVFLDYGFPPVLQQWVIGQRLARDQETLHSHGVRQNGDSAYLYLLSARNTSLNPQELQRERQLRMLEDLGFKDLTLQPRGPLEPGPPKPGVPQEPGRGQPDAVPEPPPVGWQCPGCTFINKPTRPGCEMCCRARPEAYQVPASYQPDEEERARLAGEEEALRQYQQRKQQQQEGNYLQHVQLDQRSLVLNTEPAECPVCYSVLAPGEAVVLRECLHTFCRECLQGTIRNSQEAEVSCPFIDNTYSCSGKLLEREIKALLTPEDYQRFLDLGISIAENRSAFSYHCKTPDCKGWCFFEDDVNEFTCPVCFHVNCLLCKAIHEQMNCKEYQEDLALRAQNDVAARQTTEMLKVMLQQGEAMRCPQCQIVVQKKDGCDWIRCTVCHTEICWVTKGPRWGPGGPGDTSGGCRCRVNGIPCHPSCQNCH
In the case of R646W, the “effect of a mutation on the interaction” value is reported as “with no effect”.

Variants of: B4
Conditions: with ccd24_human CCDC24, Q8N4L8
Sequence of ccd24_human CCDC24, Q8N4L8 (Q8N4L8 whole entry): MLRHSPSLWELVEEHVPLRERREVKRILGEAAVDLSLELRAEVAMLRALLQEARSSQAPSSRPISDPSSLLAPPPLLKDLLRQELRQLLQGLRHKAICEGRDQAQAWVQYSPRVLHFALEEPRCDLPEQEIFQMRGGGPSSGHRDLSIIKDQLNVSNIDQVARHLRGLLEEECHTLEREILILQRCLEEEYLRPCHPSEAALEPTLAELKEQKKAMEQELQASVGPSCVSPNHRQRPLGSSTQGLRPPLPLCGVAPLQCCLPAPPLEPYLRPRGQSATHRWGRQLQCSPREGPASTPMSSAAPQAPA
In the case of R646W, the “effect of a mutation on the interaction” value is reported as “with no effect”.

Variants of: B5
Conditions: with efhc2_human EFHC2, Q5JST6
MATDWLGSIVSINCGDSLGVYQGRVSAVDQVSQTISLTRPFHNGVKCLVPEVTFRAGDITELKILEIPGPGDNQHFGDLHQTELGPSGAGCQVGINQNGTGKFVKKPASSSSAPQNIPKRTDVKSQDVAVSPQQQQCSKSYVDRHMESLSQSKSFRRRHNSWSSSSRHPNQATPKKSGLKNGQMKNKDDECFGDDIEEIPDTDFDFEGNLALLDKAAVFEEIDTYERRSGTRSRGIPNERPTRYRHDENILESEPIVYRRIIVPHNVSKEFCTDSGLVVPSISYELHKKLLSVAEKHGLTLERRLEMTGVCASQMALTLLGGPNRLNPKNVHQRPTVALLCGPHVKGAQGISCGRHLANHDVQVILFLPNFVKMLESITNELSLFSKTQGQQVSSLKDLPTSPVDLVINCLDCPENVFLRDQPWYKAAVAWANQNRAPVLSIDPPVHEVEQGIDAKWSLALGLPLPLGEHAGRIYLCDIGIPQQVFQEVGINYHSPFGCKFVIPLHSA [F213L] was tested, and the “effect of a mutation on the interaction” value was “with no effect”.

Source: IntAct's records for PubMed 29892012
